assay: yeast display, Sf9 membrane polyspecificity reagent, FACS + sequencing; frameworks hold sequencing errors
Method in brief: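 A nanobody's polyreactivity label depends on the gate it was sorted from. Yeast display cells were stained with 10% biotinylated, detergent-solubilized Sf9 membrane reagent for 1 hour at 4 °C, enriched on streptavidin microbeads and sorted by FACS. The low and high (top ~1%) gates were set on anti-HA fluorescence for expression and streptavidin fluorescence for reagent binding.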

Sequence | polyreactivity (PSR sort gate)
QVQLQESGGGLVQAGGSLRRSCAATGSIFYRLKMGWHRQATGKERELVATIDPGSNTYYADSVKGSFTMSRDNAKNTVYPQMYSLKPEDTAVYYCAVSAHWTIHYYYWGQGTQVTVSS | high polyreactivity
QVQLQESGGGLVQAGGSLSLSCAASGSISAVGAMGWYRKAPGKERELAASVNWCTNTNYADSVKGRFTISRDNAKNTLYLQMNSLKPEDTAVYYCAVLPDWETRHDYWGHGTQVTVSS | low polyreactivity
QVQLQESGGGLVQAGGSPRLSCAASGTITRQYYMGWYRQAPGKERGFVAGIKSGSTTYYADNVKGCFTISRDNAKNAAYLQMNSLKPEDTAVYYCAIRPSYTIPYWYWGQGTQVTVSS | high polyreactivity
QVQLQESGGGLVQAGGSPRLSCAESDNIYPDSVICWYRQAPGKERELVATIGFGATTNYADSVKGRLTISRDNAKNTVYLQMNSLKPEDTAVYYCAADPLNYEYFCYWGQGTQVTVSS | low polyreactivity
QVQLQESGGGLVQAGGSQRLSCAASGYIFYFQYMGWYRQATGKEREFVAAISDGANTNYADSVKGRFTISRDNAKNTEYLQMNSLKPEDTAVYYCAVYADENYYFIYWGQGTQVTVSS | low polyreactivity
QVQLQESGGGLVQAGGTLRLSCAASGSFSADEDMGWYRQAQGKESEFVAGISVGGNTNYADSVKGRFTISRENAKNTVYLQINSLKPEDTAVYYCAVLQDVYDALDYWAQGTQVTVSS | high polyreactivity
QVQLQESGGGLVQAVGSLRLSCAASGNISDYYDMGWYRQAPGKERKIVAGIDFGAITNYADSVKGRFTISRDNAKNTEYLQMSSLKPEDTAVYYCAAGVYDWYAYDYWGQGTQVTVSS | high polyreactivity
QVQLQESGGGLVQEGGSLRLSCAESGNISPQADMGWYRQAPGKERELVASIGTGGTTNYADSVTGRFTISRDNAKNTVYLQMNSLKPDDTAFYYCAAVRYEYNPYDYWGQGTQVTVSS | low polyreactivity
QVQLQESGGGLVQGGGSLRLSCAASGSIYRYWYMGWYRQAPGKERELVASITEGATTNYAYSVKAALPLAAITRNTVYLQMDSMKPEDTAVYYRAASFGSTYDLVYWGQGTQVTVSS | high polyreactivity
QVQLQESGGGLVQPGGSLRLSCAASGYISSWYPMGWYPQAPGKEREFVATIAPGATTYYADSVKGRFTISRDYANNTVYLQMNSLKPEDTAVYYLAAGPENKDFYSYWCQGTQVTVSS | low polyreactivity
QVQLQESGGGLVQVGGSQRLSCAASGNIFFNYAMGWYRHAQGKEREFDASINHGTSINYEDSVKGRFTISRDNAKNTVYLQMNSLKPEDTAVYYCAADLSWTDNLFYWGQGTQVTVSS | low polyreactivity
QVQLQESGGGLVQVGVSQRLSCAASGNIFYNYAMGWYRHAQGKEREFDATINHCTSINYADSVKGLFTISRDNAKKTVYLQMNSLKPEDTAVYYCAADLSWTDNLFYWGQGTQVTVSS | low polyreactivity
QVQLQESGGGQVQAGGSLRLSCAASGYISTHYFMGWYRQAPGKDREFVAGISNGSITNYADSVKGRFTISRDNARNTVYLQMNSLKPEDTAVYYGAAFEWTYVRFGYWGQGTQVTVSG | high polyreactivity
QVQLQESGGGQVQAGGSLRWSCAASGYISTHYFMGWYRQAPGKDREFVAGISNGSITNYADSVKGRFTISRDNARNTVYLQMNSLKPEDTAVYYVAAYQWTYVRFGYWGQGTQVTVSG | high polyreactivity
QVQLQESGGHLEQSGGSLRLSCTASGTISDVRVMGWYRQAPGKERELVATISYVTITYYADSVKGRFTISRDSEKHRVSADDEPETGRYRGVLLRYYWGLGTQVTVSS | low polyreactivity
QVQLQESGGLVQAGGLRLSCAASGSVSYQEAMGWYRQAPGKERELVATISFGANTNYADSVKGRFTISRDNAKNTVYLQMNSLKPEDTAVYYCAADAYRWWVRYDYWGQGTQVTVSS | low polyreactivity
QVQLQESGGLVQAGGLRLSCAASGSVSYQEAMGWYRQAPGKERELVATISFGANTNYAESVKGRFTISRDNAKISLYLQMNSLQPEDTSLYYWAAECLFDDYYGYWGQGTQVTVSS | low polyreactivity
QVQLQESGGLVQAGGLRLSCAASGSVSYQEAMGWYRQSPGKERELVATISFGANTNYADSVKGRFTISRDNAKNTVYLQMNSLKPEDTAVYYCAAESLFDDYYGYWGQGTQVTVSS | low polyreactivity

— the nanobody polyreactivity screen of Harvey et al. (2022)
